Literature values in article PMC3890242.

Target: Tyr57 (UniProt position 57, QIAAFYRQGLG)
Assay: UV-vis
Settings: unliganded D40N pKSI

In the case of “Ketosteroid isomerase (pKSI) D40N (Pseudomonas putida; D40N)”, the pKa is given as 6.3 ± 0.1.
